The values that follow come from patent US12241094B2, “Phenazine degrading agents and related compositions, methods and systems for interfering with viability of bacteria” (priority 2016, dated 2025).

One data set has as its system P. aeruginosa biofilm. The experiment in a line: Microcolony number and size in 5 hour biofilms on succinate minimal medium. In kind it is cell-based. The note with it: 100 μM 1-OHPHZ or 0.5 μg mL-1 PodA. An excerpt:
FIGS. 24A-C show charts and images illustrating results of exemplary experiments showing that PodA and 1-OH-PHZ inhibit the early stages of P. aeruginosa biofilm formation on succinate minimal medium. […] Numbers are averages and SD from 8 biological replicates.

The next data set concerns Pa PA14 biofilm. The experiment in a line: Biofilm biomass by DAPI intensity (Example 7). In kind it is cell-based, P. aeruginosa. The protocol: In this example, to check for an effect of PodA or 1-OH-PHZ on biofilm development, Pa PA14 was grown in 8-well chambered microscope slides designed for biofilm imaging, as previously reported (Das et al. (2015) Sci Rep. 5:8398). Overnight cultures of Pa PA14 were diluted to a starting optical density of 0.25 and grown directly on the slides (volume of 250 μl per chamber). After 5 h incubation at 37° C., planktonic cells were rinsed from the slide and remaining cells were stained with DAPI. Biofilm biomass was quantified by DAPI intensity on a Leica confocal microscope, with LAS X software. Pa PA14 incubated in the presence of 1 μM PodA or 100 μM 1-OHPHZox had ˜50% the biofilm biomass of Pa PA14 alone (FIG. 20A).

Data set [1] in a line: PYO demethylation by purified PodA30-162 and mutants (spectrophotometric/HPLC). In kind it is biochemical. The protocol: Enzyme activity and analysis. PYO demethylation by PodA30-162 was first determined by HPLC analysis as described previously (6, 9). To detect formaldehyde evolution, 150 nM protein was mixed with 50 μM PYO in 1 mL of 20 mM Tris pH 7.6 amended with 200 μL Nash reagent (2 M ammonium acetate, 50 mM acetic acid, 20 mM acetylacetone) and incubated at 55° C. until the reaction proceeded to completion (37, 38). The products were determined by HPLC using the same method as used for phenazine quantification. To monitor the formation of reduced phenazine, protein and 50 μM PYO were placed into an anaerobic chamber (Coy Laboratory Products) under an atmosphere of H2/N2 (5:95) and left overnight before allowing the reaction to proceed. To generate reduced PYO and 1-OH-PHZ, 50 μM were mixed with 1 mM sodium dithionite. The formation of reduced phenazine products was assayed visually under UV illumination (39). A BioTek Synergy 4 microplate reader (BioTek) plate reader in the anaerobic chamber was used to measure the emission spectrum of products with excitation at 250 nm. To determine the activity of PodA30-162 in the presence of glycerol, salts, or varying pH, 30 nM protein was suspended in 500 μL buffer, 40 μM PYO was mixed with 2× solution containing the buffer of interest (500 μL), and solutions were preheated to 30 C. For pH range measurements, the following buffers were used (40 mM, adjusted with KOH): acetic acid, pH 4.9; MES, pH 5.4 and 5.7; HEPES, pH 6.1; Tris, pH 6.9 and 7.5; Bicine, pH 7.8, 8.3 and 8.7; CHES, pH 9.4. To measure reaction rates, cuvettes containing the 2×PYO solution were placed in a Evolution 260Bio UV-Vis spectrophotometer (Thermo Scientific) and 500 μL of 30 nM protein was added at time 0 (15 nM protein and 20 μM PYO, final concentration). Reaction progress was monitored by measuring absorbance at 313 nm (40) every 0.5 seconds for 5 minutes. To measure kinetic parameters (kcat, Km) 15 nM protein was used in a reaction buffer of Bicine, pH 7.8; reactions were monitored as before with measurements every 0.2 seconds. The rate from the first 10 seconds of the reaction was used for the determination of kinetic parameters. Kinetic parameters were calculated in Microsoft Excel using the Solver plug-in and fitting data to ideal Michaelis-Menton plots with non-linear regression of experimental data (41). For measurements of the rate of methoxy-PMS demethylation, 300 nM protein was used and methoxy-PMS loss from the reaction mixture was monitored at 500 nm wavelength. Methoxy-PMS was purchased from TCI America. For assays with mutant proteins, 60 nM protein was used. The stimulatory effects of flavin or 2-oxoglutarate addition was determined by adding 25 μM flavin or 2-oxoglutarate to 20 μM PYO and 15 nM PodA30-162 and monitoring the reaction. Experiments testing alternative substrates were carried out using 1 mL reaction volumes containing 20 mM Tris (pH 7.6) and 50 μg mL^−1 PodA30-162. Alternative substrates tested were 10-methylphenothiazine (AlfaAesar), phenazine methosulfate (AlfaAesar), methoxyphenazine methosulfate (TCI America), and 4-keto-N-ethylphenazine. 4-keto-N-ethylphenazine was synthesized from phenazine ethosulfate (Sigma-Aldrich) by incubating under fluorescent light overnight followed by purification by HPLC as described (6, 42). As phenazine methosulfate is light sensitive and spontaneously converts to PYO in the presence of light, all reactions were carried out in the dark, and activity was assessed by end point analysis by HPLC after 4 hours (9).

Entries after “also recorded” stand apart in the source; their conditions may differ. Like-named read-outs stand apart in the source and are kept apart here.

B1: PodA30-162: truncated pyocyanin demethylase encoded by MFORT_14352 of Mycobacterium fortuitum lacking N-terminal helix, SEQ ID NO: 2 (protein, listed as Mycobacterium fortuitum)
chain: MDGRGGRSTTEPVTMTLDVKNDQVAKHDFGKPGMDVGDMDIFSDILSVDGKQVGYDGGACFFTNVTPDNPMTYCELTIHLDAGEIFARSLTPHTLAPFTMAITGGTGEYANSKGELTVSGVATPDEKYELKLTKAENLYFQ
Regarding B1, in the data set on P. aeruginosa biofilm, the microcolony diameter result is “decreases”. For the same molecule, the “number of microcolonies formed” value with P. aeruginosa biofilm (vs inactive E154A) is “decreases”. The “biofilm biomass relative to Pa PA14 alone” value in the data set with Pa PA14 biofilm (1 μM PodA or 100 μM 1-OHPHZox, 5 h at 37° C) is recorded as about 50%. Besides, the “biofilm formation compared to untreated control” value in the data set with Pa PA14 biofilm (PodA 1 μM, 1-OH-PHZ 100 μM, total DAPI staining) is “inhibit biofilm formation”. Moreover, in data set [1] (20 μM PYO, 15 nM PodA30-162), the “activity in presence of glycerol or KCl or NaCl salts” value is listed as “minimally inhibited” and the “pH regime over which enzyme operates” value is reported as 4.9-8.7 pH. The “pH above which activity is lost” value in data set [1] (20 μM PYO, 15 nM PodA30-162, 5 minutes) is listed as over 9 pH. In addition, the “activity in presence of flavins (FMN, FAD) or 2-oxoglutarate” value in data set [1] (25 μM, 15 nM PodA30-162) is recorded as “not stimulated”. Further, the “activity under anoxic conditions” value in data set [1] (50 μM PYO, anaerobic chamber) is listed as “functions under anoxic conditions; also recorded: active”. Moreover, in data set [1] (KCl or NaCl), the “salt concentrations over which enzyme operates” value is 0 to 400 mM. In addition, the kcat in data set [1] (PYO substrate, 15 nM protein, Bicine pH 7.8) came out at 1.20 ± 0.07 s⁻¹. Further, in data set [1] (PYO substrate, 15 nM protein, Bicine pH 7.8, read-out: Km), the Km is under 1 µM. Moreover, in data set [1] (best fit to Michaelis-Menton plot, 15 nM PodA30-162, PYO detection limit 0.5 μM, read-out: apparent Km), the Km was under 1 µM.
